{"source": "patent US20260049134A1", "about": "(UNIVERSITY OF FLORIDA RESEARCH FOUNDATION, published 2026)", "key": {"[1]": {"target": "T1, PTPRG, endogenous in H929 multiple myeloma cells (human, UniProt P23470 20-1445)", "T1 construct": "Native protein on H929 cells (flow cytometry, siRNA knockdown) and in H929 lysates (IP/MS); also called phosphatase receptor type γ", "T1 sequence (P23470 20-1445 limits assumed)": "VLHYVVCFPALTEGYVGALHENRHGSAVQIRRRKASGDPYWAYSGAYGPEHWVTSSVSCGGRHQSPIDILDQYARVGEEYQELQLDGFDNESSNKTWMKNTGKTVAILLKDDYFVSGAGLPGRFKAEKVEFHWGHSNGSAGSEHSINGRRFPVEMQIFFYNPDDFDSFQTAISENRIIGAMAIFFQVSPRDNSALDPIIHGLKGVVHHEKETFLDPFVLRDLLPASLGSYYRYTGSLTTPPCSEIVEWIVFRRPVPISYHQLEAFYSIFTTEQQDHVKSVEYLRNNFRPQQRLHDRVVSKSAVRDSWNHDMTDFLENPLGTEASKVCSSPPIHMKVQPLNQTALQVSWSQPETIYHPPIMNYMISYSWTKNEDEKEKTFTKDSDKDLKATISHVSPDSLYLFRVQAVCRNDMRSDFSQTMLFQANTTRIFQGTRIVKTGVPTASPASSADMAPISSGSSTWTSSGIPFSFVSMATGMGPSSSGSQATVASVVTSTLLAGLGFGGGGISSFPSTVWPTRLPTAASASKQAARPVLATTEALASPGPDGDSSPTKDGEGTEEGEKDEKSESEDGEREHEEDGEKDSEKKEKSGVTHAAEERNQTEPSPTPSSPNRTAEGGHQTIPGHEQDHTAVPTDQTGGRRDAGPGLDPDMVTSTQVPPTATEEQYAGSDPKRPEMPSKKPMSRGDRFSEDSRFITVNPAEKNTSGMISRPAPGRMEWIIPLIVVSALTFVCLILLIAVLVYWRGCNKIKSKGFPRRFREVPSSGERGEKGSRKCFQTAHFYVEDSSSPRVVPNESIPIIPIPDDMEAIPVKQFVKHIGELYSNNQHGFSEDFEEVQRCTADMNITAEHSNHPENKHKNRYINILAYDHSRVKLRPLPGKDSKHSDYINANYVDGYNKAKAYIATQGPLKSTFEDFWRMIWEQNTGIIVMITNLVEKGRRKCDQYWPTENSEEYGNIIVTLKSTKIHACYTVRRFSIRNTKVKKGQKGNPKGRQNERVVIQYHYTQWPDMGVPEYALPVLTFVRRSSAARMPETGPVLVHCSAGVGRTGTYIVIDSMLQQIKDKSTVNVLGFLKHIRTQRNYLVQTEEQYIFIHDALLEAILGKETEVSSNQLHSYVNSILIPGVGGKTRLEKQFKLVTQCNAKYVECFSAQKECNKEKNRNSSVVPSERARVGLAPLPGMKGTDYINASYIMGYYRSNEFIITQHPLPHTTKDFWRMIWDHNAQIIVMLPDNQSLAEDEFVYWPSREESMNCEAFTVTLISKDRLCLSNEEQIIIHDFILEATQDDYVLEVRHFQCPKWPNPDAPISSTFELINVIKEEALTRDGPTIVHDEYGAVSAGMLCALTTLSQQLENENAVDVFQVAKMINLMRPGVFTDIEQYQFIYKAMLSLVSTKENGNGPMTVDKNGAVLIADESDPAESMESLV", "assay": "flow cytometry, H929 + GARS siRNA; None 0.2"}, "[2]": {"target": "T1, PTPRG, endogenous in H929 multiple …", "assay": "flow cytometry, H929 + CDH18 siRNA; None 443"}, "[3]": {"target": "T2, ICAM1, endogenous in H929 multiple myeloma cells (human, UniProt P05362 28-532)", "T2 construct": "Native protein on H929 cells (flow cytometry, siRNA knockdown) and in H929 lysates (IP/MS); also called CD54", "T2 sequence (P05362 28-532 limits assumed)": "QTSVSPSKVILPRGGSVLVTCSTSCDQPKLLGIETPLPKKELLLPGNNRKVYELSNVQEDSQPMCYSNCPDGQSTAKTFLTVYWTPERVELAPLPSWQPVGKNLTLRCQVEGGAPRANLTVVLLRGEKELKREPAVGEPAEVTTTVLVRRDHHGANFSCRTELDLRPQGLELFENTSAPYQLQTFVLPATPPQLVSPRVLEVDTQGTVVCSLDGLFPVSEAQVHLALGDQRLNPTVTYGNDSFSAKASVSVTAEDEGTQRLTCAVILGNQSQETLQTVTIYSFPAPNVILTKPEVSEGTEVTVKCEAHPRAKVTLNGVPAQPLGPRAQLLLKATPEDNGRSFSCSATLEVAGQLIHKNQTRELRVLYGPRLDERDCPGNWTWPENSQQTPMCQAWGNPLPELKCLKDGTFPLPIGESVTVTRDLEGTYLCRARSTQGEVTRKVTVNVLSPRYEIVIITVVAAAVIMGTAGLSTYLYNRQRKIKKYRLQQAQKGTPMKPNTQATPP", "assay": "flow cytometry, H929 + CADM1 siRNA; None 449"}, "[4]": {"target": "T2, ICAM1, endogenous in H929 multiple …", "assay": "flow cytometry, H929 + GARS siRNA; None 0.2"}, "[5]": {"target": "T2, ICAM1, endogenous in H929 multiple …", "assay": "flow cytometry, H929 + CDH18 siRNA; None 443"}, "[6]": {"target": "T3, CADM1, endogenous in H929 multiple myeloma cells (human, UniProt Q9BY67 45-442)", "T3 construct": "Native protein on H929 cells (flow cytometry, siRNA knockdown) and in H929 lysates (IP/MS); RPMI-8226 cells were used for sorting with HW-97; also called IGSF4A", "T3 sequence": "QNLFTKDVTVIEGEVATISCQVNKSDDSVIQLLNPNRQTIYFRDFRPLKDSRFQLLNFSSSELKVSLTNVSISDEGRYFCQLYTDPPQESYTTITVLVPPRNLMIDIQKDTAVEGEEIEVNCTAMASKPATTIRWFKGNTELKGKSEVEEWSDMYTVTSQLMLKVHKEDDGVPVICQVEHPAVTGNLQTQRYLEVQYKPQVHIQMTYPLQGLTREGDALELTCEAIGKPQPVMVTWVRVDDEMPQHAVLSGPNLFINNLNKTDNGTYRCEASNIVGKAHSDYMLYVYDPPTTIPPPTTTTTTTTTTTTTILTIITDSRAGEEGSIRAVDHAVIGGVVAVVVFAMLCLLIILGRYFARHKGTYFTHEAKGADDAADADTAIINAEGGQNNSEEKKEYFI", "assay": "flow cytometry, H929 + CDH18 siRNA; None 443"}}}
{"binder": "HW-42 chimeric rabbit-human IgG1 LA/LA/PG (antibody, V domains shown, Fc-silenced (L234A/L235A/P329G) IgG1, lambda; Alexa Fluor 647-labeled in single-step flow cytometry; Cluster C-1) VH: QSVKESEGGLFKPADTLTLTCTVSGFSLSSNEISWVRQAPGEGLEYIGIIDTGGRAYYAVWARSRSTITRNTNLNTVTLKMTSLTAADTATYFCARGGVDTEWYAFSSWGPGTLVTVPS VL: SFVLTQPASVQVNLGQTVSLTCTADTLSRRYASWYQQKPGQAPVLLIFRDTSRPSGVPDRFSGSSSGDTATLTISGAQAGDEADYYCATSDGSGSNYQYVFGGGTQLTVTG", "values": [{"measurement": "Cells stained (%)", "setting": "[1]", "value": 98.8, "unit": "%"}, {"measurement": "mAb binding (MFI)", "setting": "[2]", "value": 9870}]}
{"binder": "HW-113 chimeric rabbit-human IgG1 LA/LA/PG (antibody, V domains shown, Fc-silenced (L234A/L235A/P329G) IgG1, lambda; Alexa Fluor 647-labeled in single-step flow cytometry) VH: QKQLVESGGGLVQPGGSLTLTCTVSGFSLNKYYMGWFRQAPGKGLEWIGVISRSGDTYYSSWAKGRFTISKASTTVDLRITSPTTEDTATYFCARDASSPGFHGDRLDLWGQGTLVTVSS VL: SFVLTQPASVQVNLGQTVSLTCTADTLSRSYASWYQQKPGQAPVLLIYRDTSRPSGVPDRFSGSSSGNTATLTISGAQAGDEADYYCATSDGIGSNYLWVFGGGTQLTVTG", "values": [{"measurement": "mAb binding (MFI)", "setting": "[3]", "value": 32600}, {"measurement": "Cells stained (%)", "setting": "[4]", "value": 99.8, "unit": "%"}, {"measurement": "mAb binding (MFI)", "setting": "[5]", "value": 18200}]}
{"binder": "HW-97 chimeric rabbit-human IgG1 LA/LA/PG (antibody, V domains shown, Fc-silenced (L234A/L235A/P329G) IgG1, lambda; Alexa Fluor 647-labeled in single-step flow cytometry; Prototype of cluster C-97) VH: QKQLVESGGRLVTPGTPLTLTCTVTGIDLSSHGMSWVRQAPGKGLEWIGVIYPSGSTWYASWARGRFTISKTSTTVDLKMTSLTTEDTATHFCARGDVGGADNNIWGPGTLVTVSS VL: SFVLTQPASVQVDLGQTVSLTCTAETLSRSYASWYQQKPGQAPVLLIYRDTSRPSGVPDRFSGSSSGNTATLTISGAQAGDEADYYCATSDGSGSSYQYVFGGGTQLTVTG", "values": [{"measurement": "mAb binding (MFI)", "setting": "[6]", "value": 17900}]}
